Molecular target: truncated RBD variant RBD-215 (amino acids R319-L533), plant-produced (SARS-CoV-2) (UniProt P0DTC2)
Assay: SEC; IMAC-purified RBD-215 (Supplementary Figure 4)

“truncated RBD variant RBD-215 (amino acids R319-L533), plant-produced (from UniProt P0DTC2 319-533) (domain or fragment)” was tested, and the percent dimers was 10%.

— PMC8239413
